Data from patent US20230285589A1, “LIPOSOME COMPLEX FOR CANCER TREATMENT, COMPRISING NOVEL CD47 BINDER AND POLYNUCLEOTIDE” (priority 2020, published 2023).

Columns and labels:
[1] = molecular target: recombinant CD47 protein (Homo sapiens, UniProt Q08722); experiment: SPR, CD47 conjugated to CM5 chip; conditions: 250 RU CD47, 1:1 binding model
Method: Specifically, the recombinant CD47 protein was conjugated to the surface of the CM5 chip by a target SPR reaction of 250 RU through an EDC-NHS reaction to be used, and for HBS-P, the sensogram obtained through a process of association for 3 minutes and dissociation for 10 minutes at a flow rate of 30 μL/minutes was analyzed with the BiaEvaluation software using a 1:1 binding model and global fitting.

[2] = 5'-nucleotidase preferred substrate (Km), dTMP; format: biochemical; conditions: according to Table 4

recombinant CD47 protein, sequence (Q08722 19-323): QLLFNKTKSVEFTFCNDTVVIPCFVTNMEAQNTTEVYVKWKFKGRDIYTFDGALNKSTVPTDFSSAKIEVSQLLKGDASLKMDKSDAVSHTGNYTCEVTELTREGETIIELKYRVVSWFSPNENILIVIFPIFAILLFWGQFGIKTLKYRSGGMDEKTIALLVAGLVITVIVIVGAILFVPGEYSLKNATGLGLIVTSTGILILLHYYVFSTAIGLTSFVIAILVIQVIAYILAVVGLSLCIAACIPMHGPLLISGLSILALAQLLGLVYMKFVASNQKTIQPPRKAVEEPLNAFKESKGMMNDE

B1: SV4: CD47 binder of SEQ ID NO: 2; SV1 with lysines at positions 11 and 104 substituted with leucine (protein)
chain: MEEELQIIQPDLSVSVAAGESAILHCTITSLFPVGPIQWFRGAGPARVLIYNQRQGPFPRVTTVSETTKRENMDFSISISNITPADAGTYYCIKFRKGSPDTEFLSGAGTELSVRAKPS
modifications: CD47 binder SV4
ka [1]: 164000 M⁻¹ s⁻¹
kd [1]: 0.000275 s⁻¹

B2: NT5M: Human mitochondrial 5′-deoxyribonucleotidase (SEQ ID NO: 32) (protein)
chain: MGGRALRVLVDMDGVLADFEGGFLRKFRARFPDQPFIALEDRRGFWVSEQYGRLRPGLSEKAISIWESKNFFFELEPLPGAVEAVKEMASLQNTDVFICTSPIKMFKYCPYEKYAWVEKYFGPDFLEQIVLTRDKTVVSADLLIDDRPDITGAEPTPSWEHVLFTACHNQHLQLQPPRRRLHSWADDWKAILDSKRPC
modifications: NT5M
affinity for dTMP, times lower compared to T001 [2]: 30 times
